Data set [1] concerns the target WT MCL-1 fusion protein (N-terminal His6-tag fused to amino acids Glu173-Arg329, containing the BH3, BH1 and BH2 domains) (human) (UniProt Q07820). The data set is described as follows: differential scanning fluorimetry (thermal shift assay); purified MCL-1 proteins (10 uM) with or without the indicated concentrations of ligand, Sypro-Orange, thermal ramping 0.3 °C per min between 25 and 94 °C, final DMSO 4% v/v; ΔTm against buffer without peptide.

Data set [2] has as its target T1, WT MCL-1 fusion protein (N-terminal His6-tag fused to amino acids Glu173-Arg329, containing the BH3, BH1 and … (human, UniProt Q07820 173-329)).
T1 construct: human MCL-1, amino acids E173-R329 (BH3, BH1 and BH2 domains); the results once say 172-329; Cloned into pOPIN F; also called MCL-1 (E173-R329); MCL-1 protein (173-329); source: E. coli BL21 (DE3) pLysS, purified (Ni-NTA IMAC, Superdex 200 SEC)
The data set is described as above. The settings on record: both partners purified.

T1 sequence (Q07820 173-329): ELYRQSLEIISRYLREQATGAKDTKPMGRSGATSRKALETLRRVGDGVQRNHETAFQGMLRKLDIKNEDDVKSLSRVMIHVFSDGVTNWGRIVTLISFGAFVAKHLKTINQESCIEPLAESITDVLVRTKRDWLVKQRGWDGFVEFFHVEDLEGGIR
Sequence of WT MCL-1 fusion protein (N-terminal His6-tag fused to amino acids Glu173-Arg329, containing the BH3, BH1 and BH2 domains) (human) (Q07820 173-329): as above

Consider “MCL-1 SAHB (stabilised alpha-helix of BCL-2 domains, designed to mimic the BH3 binding helix of MCL-1) (peptide)”, for which the thermal shift (ΔTm) at 10 uM in data set [1] turned out to be 4 °C.

B1: PUMA peptide (peptide)
peptide: EQWAREIGAQLRRMADDLNA
notes: synthetic BH3 peptide of PUMA; source: synthetic peptide (New England Peptide or GenScript)
For the molecule B1, in data set [2], the binding result is recorded as “binds”.

B2: NOXA peptide (peptide)
peptide: AELPPEFAAQLRKIGDKVYC
notes: synthetic BH3 peptide of NOXA; source: synthetic peptide (New England Peptide or GenScript)
As to B2, the binding result in data set [2] is “binds”.

B3: MS-1 (MCL-1 specific synthetic peptide) (peptide)
peptide: RPEIWMTQGLRRLGDEINAYYAR
notes: MCL-1 specific synthetic BH3 peptide; source: synthetic peptide (New England Peptide or GenScript)
Turning to B3, in data set [2], the “temperature shift (ΔTm) at equimolar peptide and MCL-1” value was roughly 10 °C.
